Test results reported in publication PMC8263772 (2021).

Target: SARS-CoV-2 spike (S) protein receptor binding domain (RBD), wild type (SARS-CoV-2, UniProt P0DTC2)
Experiment: SPR

B1: dog angiotensin-converting enzyme 2 (dACE2) ectodomain, 6xHis (receptor)
chain: MQSTEDLVKTFLEKFNYEAEELSYQSSLASWNYNINITDENVQKMNNAGAKWSAFYEEQSKLAKTYPLEEIQDSTVKRQLRALQHSGSSVLSADKNQRLNTILNSMSTIYSTGKACNPSNPQECLLLEPGLDDIMENSKDYNERLWAWEGWRSEVGKQLRPLYEEYVALKNEMARANNYEDYGDYWRGDYEEEWENGYNYSRNQLIDDVEHTFTQIMPLYQHLHAYVRTKLMDTYPSYISPTGCLPAHLLGDMWGRFWTNLYPLTVPFGQKPNIDVTNAMVNQSWDARKIFKEAEKFFVSVGLPNMTQEFWENSMLTEPSDSRKVVCHPTAWDLGKGDFRIKMCTKVTMDDFLTAHHEMGHIQYDMAYAAQPFLLRNGANEGFHEAVGEIMSLSAATPNHLKNIGLLPPSFFEDSETEINFLLKQALTIVGTLPFTYMLEKWRWMVFKGEIPKDQWMKTWWEMKRNIVGVVEPVPHDETYCDPASLFHVANDYSFIRYYTRTIYQFQFQEALCQIAKHEGPLHKCDISNSSEAGQKLLEMLKLGKSKPWTYALEIVVGAKNMDVRPLLNYFEPLFTWLKEQNRNSFVGWNTDWSPYADQSIKVRISLKSALGEKAYEWNNNEMYLFRSSIAYAMRQYFSEVKNQTIPFVEDNVWVSDLKPRISFNFFVTSPGNVSDIIPRTEVEEAIRMYRSRINDVFRLDDNSLEFLGIQPTLGPPYEPPVT
koff: 0.0139 s⁻¹
